This is an account of results in article PMC4670726 (2015).

Common to all, as to test: FP competition (Ki)
One assay concerns the target T1, JAZF1 (Homo sapiens (Human), UniProt Q86VZ6).
T1 chain: SLKKKIQPKLSLTLS

The target of a further assay is T2, DOCK7 (Homo sapiens (Human), UniProt Q96N67).
T2 chain: RSAVRPASLNLNRSR

Another assay deals with T3, PDE4B (Homo sapiens (Human), UniProt Q07343).
T3 chain: EGDGISRPTTLPLTTLPS

In the next assay the target is T4, IRS1 (Homo sapiens (Human), UniProt P35568).
T4 chain: RLARPTRLSL

The target of the next assay is T5, APBA2 (Homo sapiens (Human), UniProt Q99767).
T5 chain: RHEARPKSLNLL

The target of the next assay is T6, GAB3b (Homo sapiens (Human), UniProt Q8WWW8).
T6 chain: KPQRKSRPPPLDLRNLS

The next assay has as its target T7, CCNT2 (Homo sapiens (Human), UniProt O60583).
T7 chain: KKEKSGSLKLRIPIP

A further assay concerns the target T8, DOCK5 (Homo sapiens (Human), UniProt Q9H7D0).
T8 chain: KAQRPKSLQLM

The target of a further assay is T9, KSR2 (Homo sapiens (Human), UniProt Q6VAB6).
T9 chain: KKKSKPLNLKI

A further assay deals with T10, AAKG2 (Homo sapiens (Human), UniProt Q9UGJ0).
T10 chain: SQKRRSLRVHIP

Another assay addresses T11, MYO9B (Homo sapiens (Human), UniProt Q13459).
T11 chain: LERPTSLALD

In the next assay the target is T12, RHDF1 (Homo sapiens (Human), UniProt Q96CC6).
T12 chain: SLQRKKPPWLKLDIPS

The next assay addresses T13, DCX (Mus musculus (Mouse), UniProt O88809).
T13 chain: SLRKHKVDLYLPLSL

B1: JNK1 (protein)
chain: DNNFYSVEIGDSTFTVLKRYQNLKPIGSGAQGIVCAAYDAILERNVAIKKLSRPFQNQTHAKRAYRELVLMKCVNHKNIIGLLNVFTPQKSLEEFQDVYIVMELMDANLCQVIQMELDHERMSYLLYQMLCGIKHLHSAGIIHRDLKPSNIVVKSDCTLKILDFGLARTAGTSFMMTPYVVTRYYRAPEVILGMGYKENVDLWSVGCIMGEMVCHKILFPGRDYIDQWNKVIEQLGTPCPEFMKKLQPTVRTYVENRPKYAGYSFEKLFPDVLFPADSEHNKLKASQARDLLSKMLVIDASKRISVDEALQHPYINVWYDPSEAEAPPPKIPDKQLDEREHTIEEWKELIYKEVMDLE
Take B1: the dissociation constant Kd (in general, the equilibrium constant for the complex coming apart) with JAZF1 is > 100 µM; with DOCK7 it was 7.3 µM; in the assay with PDE4B it was 16.4 µM; in the assay with IRS1, 3.5 µM; in the assay with APBA2, 10.8 µM; in the assay with GAB3b it was 13.2 µM. Besides, the Kd with CCNT2 was > 100 µM; with DOCK5 it was 5.1 µM; with KSR2 it was 24.7 µM; with AAKG2 it was > 100 µM; with MYO9B, 15.9 µM; in the assay with RHDF1 it was > 100 µM. Binding with DCX was put at a Kd of 16.7 µM.
